In the supplement of paper PMC10567573:
± gives the standard deviation.

Test: protein stability index of a GFP-peptide fusion (GPS, HEK-293T) (PSI 1-6); higher = more stable
[1] = treatment: DMSO, c terminus: a fixed tail appended
[2] = treatment: MLN4924 1 uM, 8 h, c terminus: a fixed tail appended
[3] = treatment: DMSO, c terminus: native
[4] = treatment: MLN4924 1 uM, 8 h, c terminus: native
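Further: 24-mer peptide tiles fused after GFP, lentivirally expressed, FACS-sorted into six equal bins by GFP/DsRed ratio, decoded by Illumina sequencing, PSI is the read-weighted mean bin number.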

Sequence | protein stability index [1] | protein stability index [2] | protein stability index [3] | protein stability index [4]
SWSDGMAFCALVHSFFPDAFDYNS [SMTNL2] | 2.95 ± 0.65 | 2.9 ± 0.67 |  | 
VRRLQALRLEREEYVLLKALALAN [ESRRA] | 2.18 ± 0.54 | 2.12 ± 0.31 |  | 
IGRDPPAETQPQNPPAQPAPNAWQ [CLPTM1] | 5.21 ± 0.31 | 5.02 ± 0.25 |  | 
GGSTSAHYAVNSQFTMGGPAISMA [CARM1] | 2.94 ± 0.55 | 2.94 ± 0.25 |  | 
FVYENAKEGARNIRTSERVTLIVD [BTBD10] | 2.55 ± 0.6 | 3.06 ± 0.5 |  | 
CDKYPHESQLPEEWENNRESLIVF [CPXM2] | 3.68 ± 0.11 | 3.44 ± 0.25 |  | 
IETSALDSTNVEEAFKNILTEIYR [RAB11B] | 2.41 ± 0.14 | 2.79 ± 0.29 |  | 
GLQSPGTLQPPEFLYSHGVPRTLS [TBX5] | 3.32 ± 0.27 | 3.49 ± 0.36 |  | 
MSSHLVEPPPPLHNNNNNCEENEQ [BNIP3L] | 5.56 ± 0.11 | 5.67 ± 0.11 |  | 
MQEFFGLKVTGKPDAETLKVMKQP [MMP1] | 3.47 ± 0.15 | 3.53 ± 0.34 |  | 
QQLVSFSESGSLGNSSGSDVTSLS [ISL2] | 4.79 ± 0.19 | 4.72 ± 0.37 |  | 
IPRENAQISLDGDVTFFGALKLL [TNFSF13B] |  |  | 2.71 ± 0.24 | 2.73 ± 0.46
VPPGDYLFQVVINPNFEVAESDYS [LOXL2] | 2.31 ± 0.37 | 2.12 ± 0.43 |  | 
PAGGLAPGGGRGALLDQIRQGIQL [WAS] | 4.7 ± 0.19 | 4.54 ± 0.76 |  | 
PPDKGEEQVNFCESSNDFGPYEGG [ZBTB22] | 5.53 ± 0.098 | 5.41 ± 0.26 |  | 
HFSRLCGPESPPPPYSRLSPRDEY [SMAD6] | 3.42 ± 0.07 | 3.56 ± 0.17 |  | 
EAVSTLLGAVAVFAVGYIKISWST [SLC19A2] | 2.82 ± 0.21 | 2.98 ± 0.73 |  | 
EDKTFGLKNKKGAKQQKFIKAVTH [ZC3H15] | 4.26 ± 0.3 | 4.39 ± 0.23 |  | 
LRFCHNNKKAKRYLLHGLECVVAM [EIF5] | 2.14 ± 0.33 | 2.23 ± 0.6 |  | 
NRYGDVPCLDQTRVKLTKRSGHTQ [PTPN9] | 3.96 ± 0.4 | 4.36 ± 0.26 |  | 
FGERRIPRGRRISVICRSLPEGMG [ALKBH7] | 2.82 ± 0.29 | 2.87 ± 0.26 |  | 
RQQGNPGHRSIYLALKLPDGSYAL [ADAMTS4] | 2.04 ± 0.23 | 2.2 ± 0.33 |  | 
KLERIARLEDKVKTLKAENAGLSS [JUNB] | 3.85 ± 0.34 | 3.97 ± 0.22 |  | 

Sequence | protein stability index [1] | protein stability index [2] | protein stability index [3] | protein stability index [4]
MACPYSVLISGDIKDRLKKKEDCL [FAM98B] | 2.87 ± 0.071 | 3.49 ± 0.38 |  | 
KRQVPTEQAQAYAERLGVTFFEVS [RAB40B] | 2.99 ± 0.22 | 3.23 ± 0.23 |  | 
WGVFYYFVSALGITAGAHRLWSHR [SCD] | 3.38 ± 0.79 | 2.63 ± 0.62 |  | 
LDNCVEVGRIANTYNLTEVDKYVN [KLHL13] | 4.12 ± 0.17 | 3.94 ± 0.23 |  | 
HINSISVNSDYETYMSADDLRINL [PPP2R2B] | 3.15 ± 0.46 | 3.2 ± 0.54 |  | 
SLARNPAPGVLTNKRKTYTESYIA [ZC2HC1A] | 3.22 ± 0.21 | 3.23 ± 0.41 |  | 
EKEYKTYKENFLKRFQLTKLPPYL [USP39] | 2.5 ± 0.17 | 2.93 ± 0.28 |  | 
LYAFFTRTHGDMHSLVRSRHRIPE [TRIB3] | 2.18 ± 0.046 | 2.26 ± 0.45 |  | 
LASSLSPSQDERMRSPQNLHSQED [NOL4L] | 5.37 ± 0.38 | 5.54 ± 0.12 |  | 
VVQDSVNISGHTNTNTLKVPECRL [SPOPL] | 3.34 ± 0.25 | 3.56 ± 0.43 |  | 
KHFKVQLVDNVYCIGQRRFHTMDE [NCK2] | 2.48 ± 0.16 | 2.44 ± 0.37 |  | 
NDALSCEYECRRRMLMKRLDVTVQ [FAM98B] | 2.61 ± 0.24 | 2.78 ± 0.38 |  | 
QFLFIYQLPFCGPNVIDNFLCDLY [OR4A15] | 3.04 ± 0.11 | 2.86 ± 0.38 |  | 
RDASDPLAGAALEPAGGGRSREAR [SMAD6] | 5.39 ± 0.19 | 5.44 ± 0.2 |  | 
LQASDRYRDLAGGTGRSAKEQVLR [FCHSD1] | 4.18 ± 0.24 | 4.29 ± 0.11 |  | 
TKILVVNAAYFVGKWMKKFPESET [SERPINB5] | 2.56 ± 0.6 | 2.53 ± 0.47 |  | 
LIKNFHQYSVEGGKETLTPSELRD [S100A14] | 4.15 ± 0.2 | 4.3 ± 0.26 |  | 
LHLKRQPKRRWLFWNSPSSPSSSA [RHOBTB2] | 2.27 ± 0.25 | 2.53 ± 0.21 |  | 
DKDRRFVFSYFLATDMISIFEPPV [EFHC1] | 2.38 ± 0.47 | 2.72 ± 0.61 |  | 
ARSIAEQAHELAYDPNYMSPFAQF [PPTC7] | 2.91 ± 0.35 | 3.08 ± 0.27 |  | 
KYLKVPQDPLKFYKKIYFCHSCQL [IQUB] | 2.24 ± 0.47 | 1.97 ± 0.2 |  | 
DGVITASEDRTIRVWLKRDSGQYW [WDFY1] | 2.65 ± 0.65 | 2.76 ± 0.18 |  | 
QALRRLRPRTRKVKSVSPQGNSVD [NCF4] | 4.32 ± 0.46 | 4.63 ± 0.26 |  | 

Sequence | protein stability index [1] | protein stability index [2] | protein stability index [3] | protein stability index [4]
SEELLSLKYENDYPSVILRDPLQT [ETS1] | 4.05 ± 0.14 | 4.14 ± 0.13 |  | 
SSSYEQFNGELPNGRHKIPESQFP [SRPK2] | 4.1 ± 0.24 | 4.21 ± 0.22 |  | 
TPLTFTKVSEGQADIMISFVRGDH [MMP1] | 2.64 ± 0.28 | 2.65 ± 0.26 |  | 
LKLVSFSKLCTSYSHSSTRDGRRD [GOSR1] | 2.81 ± 0.3 | 2.79 ± 0.35 |  | 
SEADASHCIQQILESVNHCHLNGI [CAMK2D] | 2.98 ± 0.27 | 2.89 ± 0.33 |  | 
MGSGTSTQHHFAFQNAERAFKAAA [PPEF2] | 3.46 ± 0.43 | 2.98 ± 0.25 |  | 
EDEKQRLQNEVRQLTEKLARVNEN [SSNA1] | 4.99 ± 0.35 | 5.17 ± 0.24 |  | 
IKMAMVACGDAFTVAIGAESEVYS [NEK8] | 2.57 ± 0.78 | 2.57 ± 0.5 |  | 
SRSSLMPLRNDVDKRGETTSASLL [SLC2A12] | 4.55 ± 0.15 | 4.56 ± 0.11 |  | 
LYQTELVENECYQVFLDRINRADY [TOR1AIP2] | 2.45 ± 0.27 | 2.71 ± 0.15 |  | 
VKKLMRTSTPPPASVINNMLAEIF [ZBED1] | 2.2 ± 0.37 | 2.02 ± 0.21 |  | 
LIYASYFALIAVVFLASGAVSVMK [SLC19A2] | 2.95 ± 0.27 | 3.44 ± 0.43 |  | 
LPSVFGSLRDSGYFYDPIERDIEI [RSPH3] | 2.31 ± 0.37 | 2.64 ± 0.61 |  | 
LSVLQIAQQDLAPDPDAWLRALGE [FANCE] | 2.81 ± 0.39 | 2.75 ± 0.3 |  | 
CLKKFNARRKLKGAILTTMLATRN [CAMK2A] | 3.21 ± 0.15 | 3.32 ± 0.34 |  | 
NGRACEMNGEECAEDLRMLDASGE [IKZF1] | 5.07 ± 0.51 | 5.36 ± 0.53 |  | 
LDDLSQKLKPLGEAEREFILNLKK [NLN] | 3.36 ± 0.44 | 3.07 ± 0.22 |  | 
KYLKPSGNMFPTIGDVHLAPFTDE [CARM1] | 3.69 ± 0.1 | 3.61 ± 0.37 |  | 
KLPLPSTLRSHLKSFSMAKGLNAR [RAB40A] | 2.56 ± 0.18 | 2.68 ± 0.15 |  | 
PGPASGPGPDTGPDSELSPCIPPG [SPAG8] | 5.4 ± 0.24 | 5.36 ± 0.24 |  | 
AYEFADRDEVRFFKGNKYWAVQGQ [MMP1] | 2.54 ± 0.45 | 2.74 ± 0.61 |  | 
DYEAGQHMEDPRRAGKMLMTLPLL [ESRRG] | 3.56 ± 0.29 | 3.52 ± 0.15 |  | 
MGGAVSAGEDNDELIDNLKEAQYI [PCMTD2] | 5.1 ± 0.15 | 4.95 ± 0.21 |  | 

Sequence | protein stability index [1] | protein stability index [2] | protein stability index [3] | protein stability index [4]
LLLGTAYSFYLFHPLAYGMVGPLA [POMT2] | 3.32 ± 0.18 | 3.18 ± 0.59 |  | 
LFIILQVGLNTIADLWYLFGDLSL [POMT2] | 3.06 ± 0.84 | 3.17 ± 0.064 |  | 
LQAELAAQEALREKAAALERQLKV [LRRC45] | 4.18 ± 0.094 | 4.25 ± 0.29 |  | 
SATCTTGVMSAYAMCVRYDGVEVD [ADAMTSL2] | 2.72 ± 0.32 | 2.63 ± 0.17 |  | 
VLKTRFSYAFPKEFPYRMNHILEC [CCNC] | 2.59 ± 0.58 | 2.2 ± 0.24 |  | 
EENELTSLAEDLLGLTDPNGGLA [TRADD] |  |  | 5.14 ± 0.19 | 5.06 ± 0.43
QEQNGRLQAELAAQEALREKAAAL [LRRC45] | 5.25 ± 0.21 | 5.31 ± 0.28 |  | 
DCCQVSAPNRFFQKLNVFKNFIGL [NLN] | 2.09 ± 0.51 | 2.17 ± 0.21 |  | 
KALGSDLDSSLASLVGNLGISGTT [SNAP91] | 3.94 ± 0.2 | 3.93 ± 0.15 |  | 
GMLDVADESLTDLEAQPYEAVFLR [P3H4] | 4.02 ± 0.47 | 4.19 ± 0.21 |  | 
SFVLSSLQLGEGVEFDVLPAFDAL [OAS1] | 2.45 ± 0.59 | 2.26 ± 0.53 |  | 
FKPVVAAQKISKGADPKSVVCAFF [ZC3H15] | 2.32 ± 1 | 2.81 ± 1.5 |  | 
YLASLCMCFGPKKVKPAEAETAGA [SLC29A1] | 2.6 ± 0.28 | 2.83 ± 0.23 |  | 
DLKTLSDDIKESLESEGKNSKKEE [ATE1] | 5.31 ± 0.54 | 5.32 ± 0.31 |  | 
VCINLPPPLTRQIAVKTLGIGKNV [GFOD1] | 2.23 ± 0.27 | 2.05 ± 0.19 |  | 
SMPSYSSCTVTTVQPMDRLPYQHF [TBX5] | 2.56 ± 0.3 | 2.64 ± 0.17 |  | 
LLAVPNIILTNQSVREVTQIKCIE [P2RY14] | 2.53 ± 0.29 | 2.35 ± 0.21 |  | 
TKNKELTDEFRELRATVERMGLMK [FADS1] | 3.71 ± 0.37 | 3.55 ± 0.27 |  | 
FLWGPRALVETSYVKVLHHMVKIS [MAGEA3] | 2.01 ± 0.35 | 2.64 ± 0.71 |  | 
ILDICEDNVPDPKDVKERFSGSLV [TMEM175] | 3.83 ± 0.19 | 4.06 ± 0.13 |  | 
